We go through one molecule from article PMC1636413 (Nucleic Acids Research, 2006).

Test in all cases: EMSA
On the technique in general: A gel shift assay detects complexes by their altered migration in electrophoresis.

One series deals with T1, MutSwt (Escherichia coli K12, UniProt P23909 1-853).
T1 sequence: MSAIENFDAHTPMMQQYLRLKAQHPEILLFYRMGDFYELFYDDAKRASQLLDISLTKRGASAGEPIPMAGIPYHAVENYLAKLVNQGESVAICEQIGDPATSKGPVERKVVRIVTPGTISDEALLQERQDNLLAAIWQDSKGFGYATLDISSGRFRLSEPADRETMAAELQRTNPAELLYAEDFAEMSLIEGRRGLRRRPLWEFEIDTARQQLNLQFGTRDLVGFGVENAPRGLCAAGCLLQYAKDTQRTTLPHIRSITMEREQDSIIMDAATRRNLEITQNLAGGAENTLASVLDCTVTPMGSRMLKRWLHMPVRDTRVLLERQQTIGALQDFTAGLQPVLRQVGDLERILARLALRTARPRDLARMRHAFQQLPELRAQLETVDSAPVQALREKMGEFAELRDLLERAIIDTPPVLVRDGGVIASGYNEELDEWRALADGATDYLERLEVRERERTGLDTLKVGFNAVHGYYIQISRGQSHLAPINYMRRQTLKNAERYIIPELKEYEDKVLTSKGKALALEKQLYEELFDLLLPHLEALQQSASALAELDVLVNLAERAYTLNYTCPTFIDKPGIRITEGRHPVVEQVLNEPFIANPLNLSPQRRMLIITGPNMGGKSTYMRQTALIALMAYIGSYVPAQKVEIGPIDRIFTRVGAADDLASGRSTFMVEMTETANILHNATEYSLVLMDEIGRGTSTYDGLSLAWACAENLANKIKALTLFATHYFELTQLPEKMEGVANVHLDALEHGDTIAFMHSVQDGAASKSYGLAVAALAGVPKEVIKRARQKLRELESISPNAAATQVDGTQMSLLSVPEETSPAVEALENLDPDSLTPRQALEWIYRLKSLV

Another series has as its target T2, MutSCF/D835R (Escherichia coli K12, UniProt P23909 1-853, C93A;C235S;C239A;C297S;C569S;C711V;D835R).
T2 sequence: T1 sequence with C93A, C235S, C239A, C297S, C569S, C711V, D835R

Series [1] addresses T3, MutSCF (cysteine-free MutS) (Escherichia coli K12, UniProt P23909 1-853, C93A;C235S;C239A;C297S;C569S;C711V).
T3 sequence: T1 sequence with C93A, C235S, C239A, C297S, C569S, C711V

Changes are numbered by the printed parent chain.

B1: 42 bp G/T heteroduplex (dsDNA)
DNA 1: TATTAATTTCGCGGGCTCGAGAGCTTCATCCTCTACGCCGGA
DNA 2: TCCGGCGTAGAGGATGAAGCTTTCGAGCCCGCGAAATTAATA
In the case of B1, the binding result in the series with MutSwt is on record as “binds”. Besides, the “apparent K (half saturation)” value in the series with MutSCF/D835R is 45 ± 3 nM; in series [1] it was 42 ± 2 nM.
